The text below walks through data of US20180273587A1 (AILERON THERAPEUTICS, published 2018).

Positions of bridges follow the written chain, without caps; N, C: chain ends. Non-standard residues stand in square brackets, D forms with d. Phe(4-CF3) = N[C@@H](Cc1ccc(C(F)(F)F)cc1)C(=O)O; Phe(4-tBu) = CC(C)(C)c1ccc(C[C@H](N)C(=O)O)cc1; R8 = C=CCCCCCC[C@@](C)(N)C(=O)O; S5 = C=CCCC[C@](C)(N)C(=O)O

Common to all, as to assay: Ki; method not stated; unit not printed (nM per Table 6)
One assay addresses T1, MCL-1 (UniProt Q07820 172-327, limits assumed).
T1 construct: Target of the Ki columns; also called Myeloid cell leukemia 1

For another assay, the target named is T2, BCL-XL (UniProt Q07817 1-209).
T2 construct: Target of the Ki columns
T2 sequence (Q07817 1-209): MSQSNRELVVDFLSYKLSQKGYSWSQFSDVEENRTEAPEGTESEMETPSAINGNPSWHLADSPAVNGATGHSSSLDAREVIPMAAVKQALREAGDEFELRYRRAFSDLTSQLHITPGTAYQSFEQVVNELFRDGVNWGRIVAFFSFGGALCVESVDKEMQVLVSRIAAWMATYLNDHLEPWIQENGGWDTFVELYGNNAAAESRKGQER

The target in the next assay is T3, BCL-2 (UniProt P10415 1-217, limits assumed).
T3 construct: Target of the Ki columns
T3 sequence (P10415 1-217 limits assumed): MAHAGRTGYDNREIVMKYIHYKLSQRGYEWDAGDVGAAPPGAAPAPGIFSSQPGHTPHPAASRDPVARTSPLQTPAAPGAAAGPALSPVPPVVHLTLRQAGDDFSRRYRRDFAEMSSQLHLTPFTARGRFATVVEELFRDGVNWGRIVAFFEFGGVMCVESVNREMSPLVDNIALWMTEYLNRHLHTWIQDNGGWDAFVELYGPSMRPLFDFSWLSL

T1 sequence (Q07820 172-327 limits assumed): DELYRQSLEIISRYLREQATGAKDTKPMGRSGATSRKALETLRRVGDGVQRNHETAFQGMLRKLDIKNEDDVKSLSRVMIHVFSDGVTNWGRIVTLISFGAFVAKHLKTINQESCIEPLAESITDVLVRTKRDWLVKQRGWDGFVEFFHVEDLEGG

B1: SEQ ID NO: 1745 (peptide)
peptide: Ac-IWIAQALR[R8]IGDA[Phe(4-tBu)]N[S5]YYA-NH2
modifications: staple 9-16
SMILES: CC[C@H](C)[C@H](NC(C)=O)C(=O)N[C@@H](Cc1c[nH]c2ccccc12)C(=O)N[C@H](C(=O)N[C@@H](C)C(=O)N[C@@H](CCC(N)=O)C(=O)N[C@@H](C)C(=O)N[C@@H](CC(C)C)C(=O)N[C@@H](CCCNC(=N)N)C(=O)N[C@]1(C)CCCCCCC=CCCC[C@@](C)(C(=O)N[C@@H](Cc2ccc(O)cc2)C(=O)N[C@@H](Cc2ccc(O)cc2)C(=O)N[C@@H](C)C(N)=O)NC(=O)[C@H](CC(N)=O)NC(=O)[C@H](Cc2ccc(C(C)(C)C)cc2)NC(=O)[C@H](C)NC(=O)[C@H](CC(=O)O)NC(=O)CNC(=O)[C@H]([C@@H](C)CC)NC1=O)[C@@H](C)CC
As a reminder, the Ki is a measure of affinity in units of concentration, obtained from inhibition or displacement. Take B1: the Ki with MCL-1 turned out to be 21.2 nM; in the assay with BCL-XL it was 154 nM; with BCL-2, 158 nM.

B2: SEQ ID NO: 1753 (peptide)
peptide: Ac-IWIAAALR[R8]IGDAFN[S5]LYA-NH2
modifications: staple 9-16
SMILES: CC[C@H](C)[C@H](NC(C)=O)C(=O)N[C@@H](Cc1c[nH]c2ccccc12)C(=O)N[C@H](C(=O)N[C@@H](C)C(=O)N[C@@H](C)C(=O)N[C@@H](C)C(=O)N[C@@H](CC(C)C)C(=O)N[C@@H](CCCNC(=N)N)C(=O)N[C@]1(C)CCCCCCC=CCCC[C@@](C)(C(=O)N[C@@H](CC(C)C)C(=O)N[C@@H](Cc2ccc(O)cc2)C(=O)N[C@@H](C)C(N)=O)NC(=O)[C@H](CC(N)=O)NC(=O)[C@H](Cc2ccccc2)NC(=O)[C@H](C)NC(=O)[C@H](CC(=O)O)NC(=O)CNC(=O)[C@H]([C@@H](C)CC)NC1=O)[C@@H](C)CC
B2: the Ki with MCL-1 worked out at 17.6 nM; with BCL-XL it was 69.9 nM; in the assay with BCL-2, 125 nM.

IWIAQALRAIGDAXNAYYA (N-terminal Ac; $r8 at 9 and $ at 16 (crosslinked); Bip at 14; C-terminal NH2) [SEQ ID NO: 1747]: the figures for the Ki in the assay with MCL-1, with BCL-XL and in the assay with BCL-2 were 6.5 nM, 100 nM and 114 nM, respectively.

B3: SEQ ID NO: 1741 (peptide)
peptide: Ac-IWIAAALR[R8]IGDAGN[S5]YYA-NH2
modifications: staple 9-16
SMILES: CC[C@H](C)[C@H](NC(C)=O)C(=O)N[C@@H](Cc1c[nH]c2ccccc12)C(=O)N[C@H](C(=O)N[C@@H](C)C(=O)N[C@@H](C)C(=O)N[C@@H](C)C(=O)N[C@@H](CC(C)C)C(=O)N[C@@H](CCCNC(=N)N)C(=O)N[C@]1(C)CCCCCCC=CCCC[C@@](C)(C(=O)N[C@@H](Cc2ccc(O)cc2)C(=O)N[C@@H](Cc2ccc(O)cc2)C(=O)N[C@@H](C)C(N)=O)NC(=O)[C@H](CC(N)=O)NC(=O)CNC(=O)[C@H](C)NC(=O)[C@H](CC(=O)O)NC(=O)CNC(=O)[C@H]([C@@H](C)CC)NC1=O)[C@@H](C)CC
On to B3, for which the Ki with MCL-1 was found to be 29.7 nM; with BCL-XL, 171 nM; with BCL-2, 145 nM.

B4: SEQ ID NO: 1760 (peptide)
peptide: Ac-IWIAAALR[R8]IGDAFN[S5]YYD-NH2
modifications: staple 9-16
SMILES: CC[C@H](C)[C@H](NC(C)=O)C(=O)N[C@@H](Cc1c[nH]c2ccccc12)C(=O)N[C@H](C(=O)N[C@@H](C)C(=O)N[C@@H](C)C(=O)N[C@@H](C)C(=O)N[C@@H](CC(C)C)C(=O)N[C@@H](CCCNC(=N)N)C(=O)N[C@]1(C)CCCCCCC=CCCC[C@@](C)(C(=O)N[C@@H](Cc2ccc(O)cc2)C(=O)N[C@@H](Cc2ccc(O)cc2)C(=O)N[C@@H](CC(=O)O)C(N)=O)NC(=O)[C@H](CC(N)=O)NC(=O)[C@H](Cc2ccccc2)NC(=O)[C@H](C)NC(=O)[C@H](CC(=O)O)NC(=O)CNC(=O)[C@H]([C@@H](C)CC)NC1=O)[C@@H](C)CC
Turning to B4, the Ki with MCL-1 turned out to be 2.2 nM; with BCL-XL it was 116 nM; with BCL-2, 138 nM.

B5: SEQ ID NO: 1761 (peptide)
peptide: Ac-IWIAAALR[R8]IGDAFN[S5]YYE-NH2
modifications: staple 9-16
SMILES: CC[C@H](C)[C@H](NC(C)=O)C(=O)N[C@@H](Cc1c[nH]c2ccccc12)C(=O)N[C@H](C(=O)N[C@@H](C)C(=O)N[C@@H](C)C(=O)N[C@@H](C)C(=O)N[C@@H](CC(C)C)C(=O)N[C@@H](CCCNC(=N)N)C(=O)N[C@]1(C)CCCCCCC=CCCC[C@@](C)(C(=O)N[C@@H](Cc2ccc(O)cc2)C(=O)N[C@@H](Cc2ccc(O)cc2)C(=O)N[C@@H](CCC(=O)O)C(N)=O)NC(=O)[C@H](CC(N)=O)NC(=O)[C@H](Cc2ccccc2)NC(=O)[C@H](C)NC(=O)[C@H](CC(=O)O)NC(=O)CNC(=O)[C@H]([C@@H](C)CC)NC1=O)[C@@H](C)CC
In the case of B5, the Ki in the assay with MCL-1 stood at 1.4 nM; with BCL-XL, 45.4 nM; with BCL-2, 56.4 nM.

B6: SEQ ID NO: 1744 (peptide)
peptide: Ac-IWIAQALR[R8]IGDA[Phe(4-CF3)]N[S5]YYA-NH2
modifications: staple 9-16
SMILES: CC[C@H](C)[C@H](NC(C)=O)C(=O)N[C@@H](Cc1c[nH]c2ccccc12)C(=O)N[C@H](C(=O)N[C@@H](C)C(=O)N[C@@H](CCC(N)=O)C(=O)N[C@@H](C)C(=O)N[C@@H](CC(C)C)C(=O)N[C@@H](CCCNC(=N)N)C(=O)N[C@]1(C)CCCCCCC=CCCC[C@@](C)(C(=O)N[C@@H](Cc2ccc(O)cc2)C(=O)N[C@@H](Cc2ccc(O)cc2)C(=O)N[C@@H](C)C(N)=O)NC(=O)[C@H](CC(N)=O)NC(=O)[C@H](Cc2ccc(C(F)(F)F)cc2)NC(=O)[C@H](C)NC(=O)[C@H](CC(=O)O)NC(=O)CNC(=O)[C@H]([C@@H](C)CC)NC1=O)[C@@H](C)CC
For B6, the Ki in the assay with MCL-1 stood at 8.2 nM; with BCL-XL, 107 nM; in the assay with BCL-2 it was 104 nM.

B7: SEQ ID NO: 1748 (peptide)
peptide: Ac-IWIAAALR[R8]IGDAFD[S5]YYA-NH2
modifications: staple 9-16
SMILES: CC[C@H](C)[C@H](NC(C)=O)C(=O)N[C@@H](Cc1c[nH]c2ccccc12)C(=O)N[C@H](C(=O)N[C@@H](C)C(=O)N[C@@H](C)C(=O)N[C@@H](C)C(=O)N[C@@H](CC(C)C)C(=O)N[C@@H](CCCNC(=N)N)C(=O)N[C@]1(C)CCCCCCC=CCCC[C@@](C)(C(=O)N[C@@H](Cc2ccc(O)cc2)C(=O)N[C@@H](Cc2ccc(O)cc2)C(=O)N[C@@H](C)C(N)=O)NC(=O)[C@H](CC(=O)O)NC(=O)[C@H](Cc2ccccc2)NC(=O)[C@H](C)NC(=O)[C@H](CC(=O)O)NC(=O)CNC(=O)[C@H]([C@@H](C)CC)NC1=O)[C@@H](C)CC
As for B7, the Ki is 1.5 nM in the assay with MCL-1, 25.9 nM with BCL-XL and 35.3 nM with BCL-2.

B8: SEQ ID NO: 1752 (peptide)
peptide: Ac-IWIAAALR[R8]IGDAFH[S5]YYA-NH2
modifications: staple 9-16
SMILES: CC[C@H](C)[C@H](NC(C)=O)C(=O)N[C@@H](Cc1c[nH]c2ccccc12)C(=O)N[C@H](C(=O)N[C@@H](C)C(=O)N[C@@H](C)C(=O)N[C@@H](C)C(=O)N[C@@H](CC(C)C)C(=O)N[C@@H](CCCNC(=N)N)C(=O)N[C@]1(C)CCCCCCC=CCCC[C@@](C)(C(=O)N[C@@H](Cc2ccc(O)cc2)C(=O)N[C@@H](Cc2ccc(O)cc2)C(=O)N[C@@H](C)C(N)=O)NC(=O)[C@H](Cc2c[nH]cn2)NC(=O)[C@H](Cc2ccccc2)NC(=O)[C@H](C)NC(=O)[C@H](CC(=O)O)NC(=O)CNC(=O)[C@H]([C@@H](C)CC)NC1=O)[C@@H](C)CC
For B8, the Ki with MCL-1 is 8 nM; with BCL-XL it was 36.3 nM; with BCL-2 it was 57.4 nM.

B9: SEQ ID NO: 1751 (peptide)
peptide: Ac-IWIAAALR[R8]IGDAFS[S5]YYA-NH2
modifications: staple 9-16
SMILES: CC[C@H](C)[C@H](NC(C)=O)C(=O)N[C@@H](Cc1c[nH]c2ccccc12)C(=O)N[C@H](C(=O)N[C@@H](C)C(=O)N[C@@H](C)C(=O)N[C@@H](C)C(=O)N[C@@H](CC(C)C)C(=O)N[C@@H](CCCNC(=N)N)C(=O)N[C@]1(C)CCCCCCC=CCCC[C@@](C)(C(=O)N[C@@H](Cc2ccc(O)cc2)C(=O)N[C@@H](Cc2ccc(O)cc2)C(=O)N[C@@H](C)C(N)=O)NC(=O)[C@H](CO)NC(=O)[C@H](Cc2ccccc2)NC(=O)[C@H](C)NC(=O)[C@H](CC(=O)O)NC(=O)CNC(=O)[C@H]([C@@H](C)CC)NC1=O)[C@@H](C)CC
Regarding B9, the values for the inhibition constant (Ki) in the assay with MCL-1, with BCL-XL and with BCL-2 were 8 nM, 44.1 nM and 67.5 nM, respectively.

B10: SEQ ID NO: 1750 (peptide)
peptide: Ac-IWIAAALR[R8]IGDAFQ[S5]YYA-NH2
modifications: staple 9-16
SMILES: CC[C@H](C)[C@H](NC(C)=O)C(=O)N[C@@H](Cc1c[nH]c2ccccc12)C(=O)N[C@H](C(=O)N[C@@H](C)C(=O)N[C@@H](C)C(=O)N[C@@H](C)C(=O)N[C@@H](CC(C)C)C(=O)N[C@@H](CCCNC(=N)N)C(=O)N[C@]1(C)CCCCCCC=CCCC[C@@](C)(C(=O)N[C@@H](Cc2ccc(O)cc2)C(=O)N[C@@H](Cc2ccc(O)cc2)C(=O)N[C@@H](C)C(N)=O)NC(=O)[C@H](CCC(N)=O)NC(=O)[C@H](Cc2ccccc2)NC(=O)[C@H](C)NC(=O)[C@H](CC(=O)O)NC(=O)CNC(=O)[C@H]([C@@H](C)CC)NC1=O)[C@@H](C)CC
B10: the results for the Ki with MCL-1, with BCL-XL and with BCL-2 were 4.9 nM, 36.5 nM and 71.6 nM, respectively.

B11: SEQ ID NO: 1749 (peptide)
peptide: Ac-IWIAAALR[R8]IGDAFE[S5]YYA-NH2
modifications: staple 9-16
SMILES: CC[C@H](C)[C@H](NC(C)=O)C(=O)N[C@@H](Cc1c[nH]c2ccccc12)C(=O)N[C@H](C(=O)N[C@@H](C)C(=O)N[C@@H](C)C(=O)N[C@@H](C)C(=O)N[C@@H](CC(C)C)C(=O)N[C@@H](CCCNC(=N)N)C(=O)N[C@]1(C)CCCCCCC=CCCC[C@@](C)(C(=O)N[C@@H](Cc2ccc(O)cc2)C(=O)N[C@@H](Cc2ccc(O)cc2)C(=O)N[C@@H](C)C(N)=O)NC(=O)[C@H](CCC(=O)O)NC(=O)[C@H](Cc2ccccc2)NC(=O)[C@H](C)NC(=O)[C@H](CC(=O)O)NC(=O)CNC(=O)[C@H]([C@@H](C)CC)NC1=O)[C@@H](C)CC
As to B11, the Ki with MCL-1 was 1.8 nM; with BCL-XL, 17.9 nM; in the assay with BCL-2 it was 30.7 nM.
